By Kd is commonly meant the concentration at which binding is half-saturated. Higher therefore signals a looser complex.

In this data set the target is streptavidin (SA) (UniProt P22629 25-183). Put plainly: EMSA. (In EMSA bound probe runs differently from free probe, usually more slowly.)
Sequence of streptavidin (SA) (P22629 25-183): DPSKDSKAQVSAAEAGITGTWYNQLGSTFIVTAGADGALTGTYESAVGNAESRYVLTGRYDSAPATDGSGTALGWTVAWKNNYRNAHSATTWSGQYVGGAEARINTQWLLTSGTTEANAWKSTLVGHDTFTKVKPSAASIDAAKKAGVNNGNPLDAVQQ

Take ACCGACCAGAAUCAUGCAAGUGCGUAAGAUAGUCGCGGGCCGGG (structured_RNA) [S1 aptamer (44 nt)]: the Kd came to 59 nM.

B1: S1m aptamer (60 nt) (structured_RNA)
RNA: AUGCGGCCGCCGACCAGAAUCAUGCAAGUGCGUAAGAUAGUCGCGGGUCGGCGGCCGCAU
B1 gave a Kd of 29 nM.

Source of the values: PMC3902943.
